Drawing on patent US20250179187A1, “ANTI PD-L2 ANTIBODY” (REJUVERON SENESCENCE THERAPEUTICS AG, priority 2022, published 2025), this text covers EC50 (PD-1/PD-L2 blockade reporter assay, luminescence) and EC50 for three substances.

For assay [1], the target named is human PD-L2 on CHO-K1 cells of the Promega PD-1/PD-L2 blockade bioassay (human) (UniProt Q9BQ51).
In assay [2] the target is human PD-L2 on CHO-K1 cells over-expressing hPDL2-GFP (human) (UniProt Q9BQ51). Nature of the assay: binding to cellular PDL2 (FIG. 1A by the text; flow cytometry on CHO-K1 cells expressing hPD-L2).
For assay [3] the target is unchanged. Nature of the assay: flow cytometry on CHO-K1 cells expressing hPD-L2, median fluorescence. Background: In flow cytometry, cells or beads pass a laser one at a time.
Assay [4] shares this target. Nature of the assay: flow cytometry blocking assay: antibody titrated against recombinant hPD-1 (constant 15 micrograms/mL) binding to CHO-K1 cells expressing hPD-L2; signal falls with the antibody; column head on the sheet is EC50.
Assay [5] concerns the target human PD-L2 on CHO-K1 cells of the Promega PD-1/PD-L2 blockade bioassay (human) (UniProt Q9BQ51). The source holds these as a separate data set.
Assay [6] addresses mouse PD-L2 on CHO-K1 cells over-expressing mPD-L2 GFP (mouse) (UniProt Q9WUL5). Nature of the assay: flow cytometry on CHO-K1 cells overexpressing mPD-L2, mean fluorescence.

Read-outs that look alike come from different tables or passages of the source.

human PD-L2 on CHO-K1 cells over-expressing hPDL2-GFP (human), sequence (Q9BQ51 20-273): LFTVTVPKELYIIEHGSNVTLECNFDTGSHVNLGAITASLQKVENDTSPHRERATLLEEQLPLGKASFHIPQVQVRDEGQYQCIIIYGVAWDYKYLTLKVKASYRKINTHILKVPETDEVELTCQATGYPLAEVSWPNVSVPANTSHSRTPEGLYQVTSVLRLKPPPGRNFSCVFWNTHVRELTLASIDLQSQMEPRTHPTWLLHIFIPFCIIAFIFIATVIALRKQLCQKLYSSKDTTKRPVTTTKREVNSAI
human PD-L2 on CHO-K1 cells of the Promega PD-1/PD-L2 blockade bioassay (human), sequence (Q9BQ51 20-273): as above
mouse PD-L2 on CHO-K1 cells over-expressing mPD-L2 GFP (mouse), sequence (Q9WUL5 20-247): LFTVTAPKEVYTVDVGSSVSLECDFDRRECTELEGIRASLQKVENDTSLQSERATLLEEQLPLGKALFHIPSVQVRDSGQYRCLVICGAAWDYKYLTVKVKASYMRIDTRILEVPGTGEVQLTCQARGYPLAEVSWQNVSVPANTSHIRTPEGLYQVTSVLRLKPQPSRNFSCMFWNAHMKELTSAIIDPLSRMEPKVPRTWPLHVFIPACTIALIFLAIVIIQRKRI

Substance “24F.10C12 (commercially available anti-PD-L2 monoclonal antibody)” displayed an EC50 (PD-1/PD-L2 blockade reporter assay, luminescence) in assay [1] of 1.78 nM. Also, the EC50 (commonly the concentration at which the effect is half-maximal) is 0.7 nM in assay [2], 1.18 nM in assay [3] and 1.14 nM in assay [4].

“MIH-18 (commercially available anti-PD-L2 monoclonal antibody)”: the EC50 (PD-1/PD-L2 blockade reporter assay, luminescence) was 1.71 nM in assay [1] and 1.32 nM in assay [5]. For the same substance, the EC50 came out at 0.618 nM in assay [2], 1.65 nM in assay [3] and 2.99 nM in assay [4].

With TY25 (antibody), in assay [6], the EC50 came out at 0.64 nM.
